Measurements published in JP2023110925A (dated 2023).

Target: T1, アミロイドβ (antigen of the amyloid β ELISA) (UniProt P05067 672-713)
T1 construct: also called Aβ
Test: amyloid β ELISA, conditioned medium of transient transfection

T1 sequence (P05067 672-713): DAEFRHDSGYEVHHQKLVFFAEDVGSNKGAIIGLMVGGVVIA

B1: C2 HuVH AF バージョン3 + キメラC2カッパ鎖 (transient) (antibody, name in Kabat numbering, V domains shown)
VH: EVQLVESGGGLVQPGGSLRLSCAASGFTFSSYGMSWVRQAPGKGLELVASINSNGGSTYYPDSVKGRFTISRDNAKNSLYLQMNSLRAEDTAVYYCARGDYWGQGTTVTVSS
VL: DVVMTQTPLSLPVSLGDQASISCRSSQSLVYSNGDTYLHWYLQKPGQSPKLLIYKVSNRFSGVPDRFSGSGSGTDFTLKISRVEAEDLGVYFCSQSTHVPWTFGGGTKLEIK
notes: Transient expression
binding result: no binding
